Reference: patent publication CN114369161A (HEFEN TIANKPORT IMMUNOLOGICAL DRUG CO LTD, dated 2022)

What was measured:
MICB (CHO-K1-MICB细胞表达) = biological target: T1, MICB (CHO-K1-MICB细胞表达) (Homo sapiens (Human), UniProt Q29980 23-382); test: flow cytometry (legend of Fig. 4)
T1 chain: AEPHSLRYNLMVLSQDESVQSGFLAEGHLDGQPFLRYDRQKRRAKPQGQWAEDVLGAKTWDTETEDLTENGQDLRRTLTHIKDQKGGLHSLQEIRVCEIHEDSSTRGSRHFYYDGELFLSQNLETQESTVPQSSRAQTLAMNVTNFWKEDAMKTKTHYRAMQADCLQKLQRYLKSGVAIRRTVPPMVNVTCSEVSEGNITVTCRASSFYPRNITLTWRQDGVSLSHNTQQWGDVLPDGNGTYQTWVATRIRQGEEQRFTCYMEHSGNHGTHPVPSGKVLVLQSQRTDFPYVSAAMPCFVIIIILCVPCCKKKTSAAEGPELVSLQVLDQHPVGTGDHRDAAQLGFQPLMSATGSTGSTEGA

[1] = biological target: T2, MICA胞外区α3结构域Fc融合蛋白(MICAα3-Fc); test: ELISA (legend of Fig. 2)
T2 construct: also called MICAα3-Fc融合蛋白; MICA α3结构域

重组MICA胞外区Fc融合蛋白(MICA-Fc) = biological target: T3, 重组MICA胞外区Fc融合蛋白(MICA-Fc) (human); test: ELISA, MICA-Fc coated at 1 μg/mL, HRP anti-mouse secondary
T3 construct: also called MICA-Fc融合蛋白; 人MICA

MICA (CHO-K1-MICA细胞表达) = biological target: T4, MICA (CHO-K1-MICA细胞表达) (Homo sapiens (Human), UniProt Q29983 24-383); test: flow cytometry (legend of Fig. 3)
T4 construct: also called MICA蛋白
T4 sequence: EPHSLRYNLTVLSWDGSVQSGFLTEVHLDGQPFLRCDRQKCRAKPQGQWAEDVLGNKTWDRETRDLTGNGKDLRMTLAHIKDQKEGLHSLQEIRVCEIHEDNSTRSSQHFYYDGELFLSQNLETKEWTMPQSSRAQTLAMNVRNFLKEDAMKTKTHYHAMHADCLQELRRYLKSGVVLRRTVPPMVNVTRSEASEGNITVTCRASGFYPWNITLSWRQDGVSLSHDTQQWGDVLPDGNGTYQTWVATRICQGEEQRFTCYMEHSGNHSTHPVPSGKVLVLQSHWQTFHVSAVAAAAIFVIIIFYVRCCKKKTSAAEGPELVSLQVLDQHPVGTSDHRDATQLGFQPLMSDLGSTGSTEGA

T2 sequence (chain, as listed by the source limits assumed): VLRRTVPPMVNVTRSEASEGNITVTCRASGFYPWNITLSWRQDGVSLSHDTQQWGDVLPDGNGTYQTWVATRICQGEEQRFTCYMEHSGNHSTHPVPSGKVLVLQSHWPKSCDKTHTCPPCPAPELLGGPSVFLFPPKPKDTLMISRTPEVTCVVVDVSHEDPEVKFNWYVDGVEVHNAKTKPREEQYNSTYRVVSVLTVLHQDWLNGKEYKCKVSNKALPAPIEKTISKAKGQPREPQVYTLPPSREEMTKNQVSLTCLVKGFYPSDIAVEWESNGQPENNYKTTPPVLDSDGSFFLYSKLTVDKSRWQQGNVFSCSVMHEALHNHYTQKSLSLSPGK

- binding result (MICB (CHO-K1-MICB细胞表达)): binds
- binding result [1]: binds
- binding result (重组MICA胞外区Fc融合蛋白(MICA-Fc)): binds
- binding result (MICA (CHO-K1-MICA细胞表达)): binds
B1: MICA抗体(编号为11G3) (antibody, V domains shown)
VH: QIQLVQSGPELKKPGESVKISCKASGYTFTDYGINWVKQAPGKGLKWVGWINTYTGEPINADDFKGRFALSLETSANTAYLQINNLKNEDMATYFCTRLSTVAVGAWFEYWGQGTLVTVSA
VL: DVLMTQTPLSLPVSLGDQASISCRSSQNIVHSNGNTYLEWYLQKPGQSPKLLIYKVSNRFSGVPDRFSGSGSGTDFTLKISRVEAEDLGVYYCFQGSHVPTFGGGTKLEIK
notes: also called 鼠单抗; 本发明的抗体
